# Results as given in PMC6396373, “The herpesviral antagonist m152 reveals differential activation of STING‐dependent IRF and NF‐κB signaling and STING's dual role during MCMV infection” (The EMBO Journal, 2019).
# Molecular target: the molecule itself
# Assay: non-reducing SDS-PAGE with immunoblot; iMEF stably expressing ev or m152-V5, stimulated with 10 μg/ml ISD (also with Brefeldin A); lysis in 25 mM Tris-HCl pH 7.6, 150 mM NaCl, 1% IGEPAL CA-630, 1% sodium deoxycholate, 0.1% SDS; anti-STING blot for STING dimers
protein,measurement,value
"endogenous murine STING (natural protein, stimulator of interferon genes (STING), endogenous in immortalized B6J mouse embryonic fibroblasts; Dimers seen on non-reducing SDS-PAGE after ISD stimulation; also called Endogenous STING; source: endogenous, iMEF lysate) MPYSNLHPAIPRPRGHRSKYVALIFLVASLMILWVAKDPPNHTLKYLALHLASHELGLLLKNLCCLAEELCHVQSRYQGSYWKAVRACLGCPIHCMAMILLSSYFYFLQNTADIYLSWMFGLLVLYKSLSMLLGLQSLTPAEVSAVCEEKKLNVAHGLAWSYYIGYLRLILPGLQARIRMFNQLHNNMLSGAGSRRLYILFPLDCGVPDNLSVVDPNIRFRDMLPQQNIDRAGIKNRVYSNSVYEILENGQPAGVCILEYATPLQTLFAMSQDAKAGFSREDRLEQAKLFCRTLEEILEDVPESRNNCRLIVYQEPTDGNSFSLSQEVLRHIRQEEKEEVTMNAPMTSVAPPPSVLSQEPRLLISGMDQPLPLRTDLI",stoichiometry N,2
